Article PMC10820826 (The Journal of Biological Chemistry, 2023)
Like-named read-outs stand apart in the source and are kept apart here.

T1: Mint1 PTB domain (residues 448-623) (human, UniProt Q02410 448-623)
T1 construct: human Mint1 PTB domain, residues 448-623; pGEX6P-2; source: E. coli Rosetta BL21 (DE3), purified (glutathione-Sepharose, Prescission protease, gel filtration)
T1 sequence (looked up): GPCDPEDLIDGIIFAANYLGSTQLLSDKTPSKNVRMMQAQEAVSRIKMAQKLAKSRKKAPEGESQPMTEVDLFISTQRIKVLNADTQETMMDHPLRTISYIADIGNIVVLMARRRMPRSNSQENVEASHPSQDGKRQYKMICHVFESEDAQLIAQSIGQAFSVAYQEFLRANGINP


Columns and labels:
Conditions in all cases: both partners purified
[1] = target: T2, Munc18-1-His (rat, UniProt P61765 1-594)
T2 construct: Munc18-1 (STXBP1); also called Munc18a; STXBP1; source: E. coli Rosetta BL21 (DE3), purified to homogeneity as described by Hu et al

[2] = target: T3, Mint1 PTB + TJAP1 (9-22) (human, UniProt Q02410 448-623); test: ITC; as a5, competition experiment with the other peptide (APP 750-769 or TJAP1 9-22) present with Mint1 PTB in the cell
T3 construct: human Mint1 PTB domain, residues 448-623, as m35; human tight junction-associated protein 1 residues 9-22, as m37; source: mixed from purified m35 and the synthetic peptide m37

[3] = target: T1, Mint1 PTB domain (residues 448-623); test: ITC; 25 °C, 50 mM Hepes, 200 mM NaCl, 0.5 mM TCEP, 5% glycerol; 1 mM peptide titrated into 50 μM Mint1 PTB domain; 1:1 binding model
[4] = target: T4, Munc18-1 + Sx1a (rat, UniProt P61765 1-594; P32851 1-261)
T4 construct: Munc18-1 (STXBP1), as m1; also called Munc18-1 in the presence of Sx1a; source: mixed from the purified E. coli proteins m1 and m32

[5] = target: T2, Munc18-1-His; remark: listed apart in the source
[6] = target: T5, Mint1 PTB + APP (750-769) (human, UniProt Q02410 448-623); test: ITC; as a5, competition experiment with the other peptide (APP 750-769 or TJAP1 9-22) present with Mint1 PTB in the cell
T5 construct: human Mint1 PTB domain, residues 448-623, as m35; human amyloid precursor protein residues 750-769, as m36; source: mixed from purified m35 and the synthetic peptide m36

[7] = target: T2, Munc18-1-His; remark: listed apart in the source
[8] = target: T4, Munc18-1 + Sx1a; test: pull-down; GST-Mint1 MID as bait, Munc18-1 in the presence of Sx1a; Coomassie-stained gel

T2 sequence (P61765 whole entry): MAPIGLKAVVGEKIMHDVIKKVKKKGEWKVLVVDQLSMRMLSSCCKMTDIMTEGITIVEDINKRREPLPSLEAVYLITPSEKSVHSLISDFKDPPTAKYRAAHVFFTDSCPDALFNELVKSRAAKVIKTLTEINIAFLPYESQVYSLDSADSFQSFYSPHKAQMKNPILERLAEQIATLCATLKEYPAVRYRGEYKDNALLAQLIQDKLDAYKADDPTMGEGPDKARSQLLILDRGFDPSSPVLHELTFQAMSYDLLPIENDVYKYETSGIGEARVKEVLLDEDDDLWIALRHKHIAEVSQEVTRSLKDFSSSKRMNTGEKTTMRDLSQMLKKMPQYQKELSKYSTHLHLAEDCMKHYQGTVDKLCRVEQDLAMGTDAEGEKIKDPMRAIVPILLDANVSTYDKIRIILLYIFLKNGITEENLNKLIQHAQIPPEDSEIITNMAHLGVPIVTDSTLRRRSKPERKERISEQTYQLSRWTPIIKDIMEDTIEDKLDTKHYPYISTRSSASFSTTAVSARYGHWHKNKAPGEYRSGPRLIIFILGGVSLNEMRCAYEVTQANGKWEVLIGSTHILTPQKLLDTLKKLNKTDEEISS
T4 sequence (P61765 whole entry, chain 1 of 2): as the sequence (P61765 whole entry) above
T4 sequence (P32851 1-261, chain 2 of 2): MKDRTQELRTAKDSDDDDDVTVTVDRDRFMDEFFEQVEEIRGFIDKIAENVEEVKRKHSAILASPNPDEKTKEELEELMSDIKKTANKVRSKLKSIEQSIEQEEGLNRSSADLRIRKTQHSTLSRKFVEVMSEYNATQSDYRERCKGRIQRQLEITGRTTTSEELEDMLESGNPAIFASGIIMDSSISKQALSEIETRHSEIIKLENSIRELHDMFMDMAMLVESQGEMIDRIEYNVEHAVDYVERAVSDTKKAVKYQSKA

Kd [1] [µM]	dH [1] [kJ/mol]	stoichiometry N [1]	Binder	also measured
5.6	-14.6	1.3	EQEEDIDQIVAEVKQSMS (source: synthetic peptide, bought: Genscript) [Mint1_5 peptide (265-282)]	–
19.1	-7.45	1	MDSYEQEEDIDQIVAEVKQS (source: synthetic peptide, bought: Genscript) [Mint1_7 peptide (261-280)]	–
4	-5.4	1.2	EEDIDQIVAEVKQSMS (source: synthetic peptide, bought: Genscript) [Mint1_6 peptide (267-282)]	–
12.9	-9.62	1.3	SYEQEEDIDQIVAEVKQSMS (source: synthetic peptide, bought: Genscript) [Mint1_4 peptide (263-282)]	–

More lines, now with the values behind:

Binder	Kd [1] [µM]	dH [1] [kJ/mol]	stoichiometry N [1]	also measured
SKMQQNGYENPTYKFFEQMQ (human amyloid precursor protein residues 750-769; also called APP NPxY peptide; source: synthetic peptide (solid phase synthesis in-house, reverse-phase HPLC)) [APP (750-769) peptide]	–	–	–	Kd [2]: 0.58 µM; dH [2]: -49.4 kJ/mol; stoichiometry N [2]: 1; Kd [3]: 0.31 µM; dH [3]: -65.3 kJ/mol; stoichiometry N [3]: 1
QEEDIDQIVAEVKQSMS (source: synthetic peptide, bought: Genscript) [Mint1_1c peptide (266-282)]	23.1	-5.02	1	–
MDSYEQEEDIDQIVAEVKQSMS (also called Mint1_1; Mint1 AHM peptide; source: synthetic peptide, bought: Genscript) [Mint1 (261-282) synthetic peptide]	–	-36.8	0.8	dH [4]: -37.2 kJ/mol; stoichiometry N [4]: 1; dH [5]: -33.1 kJ/mol; stoichiometry N [5]: 1
KPYRKAPPEHRELR (human tight junction-associated protein 1 residues 9-22; also called TJAP1 peptide; PILT; source: synthetic peptide (solid phase synthesis in-house, reverse-phase HPLC)) [TJAP1 (9-22) peptide]	–	–	–	Kd [6]: 29.4 µM; dH [6]: -29.7 kJ/mol; stoichiometry N [6]: 1; Kd [3]: 20.9 µM; dH [3]: -37.2 kJ/mol; stoichiometry N [3]: 1
GST-Mint1 MID (residues 222-314) (domain or fragment, pGEX4T-2, codon optimised; The methods call 226-314 the MID; also called GST-Mint1 (222-314); source: E. coli Rosetta BL21 (DE3), purified (glutathione-Sepharose, gel filtration)) EAAAYRQEALGARLHHYDERSDGESDSPEKEAEFAPYPRMDSYEQEEDIDQIVAEVKQSMSSQSLDKAAEDMPEAEQDLERPPTPAGGRPDSP	–	–	–	binding result [7]: binds
PYPRMDSYEQEEDIDQIVAEVKQSMSSQSL (human Mint1 residues 257-286; source: synthetic peptide, bought: Genscript) [Mint1_2 peptide (257-286)]	26	-17.6	1.3	–
PYPRMDEEEQEEDIDQIVAEVKQEMEEQEL (human Mint1 residues 257-286 with phosphomimetic Glu; source: synthetic peptide, bought: Genscript) [Mint1_3 peptide (257-286 phosphomimic)]	14	-27.2	1.1	–
GST-Mint1 (226-314) (MID) (domain or fragment, human, UniProt Q02410 226-314, looked up, human Mint1 (X11, APBA1) residues 226-314, the MID by the methods; it could also be 222-314; also called GST-Mint1 MID; source: E. coli Rosetta BL21 (DE3), purified (glutathione-Sepharose, Superdex 75)) YRQEALGARLHHYDERSDGESDSPEKEAEFAPYPRMDSYEQEEDIDQIVAEVKQSMSSQSLDKAAEDMPEAEQDLERPPTPAGGRPDSP	–	–	–	binding result [8]: binds; binding result [7]: binds
